Data published in US20190038704A1 (SANFORD BURNHAM PREBYS MEDICAL DISCOVERY INSTITUTE, published 2019).
Bridge positions count the residues as written; N and C are the ends. Square brackets hold non-standard residues; d marks the D form. Ends that are not written are not given here. βAla = NCCC(=O)O

Legend:
[1] = target: T1, mouse EphA4 ectodomain fused to Fc (mouse, UniProt Q03137 20-547); experiment: competition ELISA: ephrin-A5 AP binding to immobilized EphA4 Fc
T1 construct: extracellular domain; Defined as 'EphA4 Fc; also called EphA4 Fc; not shown: Fc portion
T1 sequence (Q03137 20-547): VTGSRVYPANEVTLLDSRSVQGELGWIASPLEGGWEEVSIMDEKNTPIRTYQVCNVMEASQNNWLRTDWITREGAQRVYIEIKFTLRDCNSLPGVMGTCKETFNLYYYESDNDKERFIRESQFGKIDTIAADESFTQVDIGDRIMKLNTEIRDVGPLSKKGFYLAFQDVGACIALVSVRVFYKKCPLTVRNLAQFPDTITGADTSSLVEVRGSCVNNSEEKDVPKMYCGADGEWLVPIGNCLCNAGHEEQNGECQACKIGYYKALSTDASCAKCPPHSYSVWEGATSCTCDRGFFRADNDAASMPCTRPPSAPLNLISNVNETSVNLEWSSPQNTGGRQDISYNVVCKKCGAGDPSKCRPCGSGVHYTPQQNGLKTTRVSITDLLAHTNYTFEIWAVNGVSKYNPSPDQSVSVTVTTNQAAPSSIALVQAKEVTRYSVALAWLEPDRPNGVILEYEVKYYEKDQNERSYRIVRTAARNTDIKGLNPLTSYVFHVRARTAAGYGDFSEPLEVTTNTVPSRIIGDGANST
Protocol: OD₄₀₅ was measured and the absorbance from wells coated with Fc was subtracted as background.

[2] = target: EphA4 in stably transfected human embryonal kidney (HEK293) cells; experiment: cell-based or functional assay

Binder | IC50 [1] | IC50 of inhibition of ephrin-A5-induced EphA4 tyrosine phosphorylation in HEK293 cells [2]
APYCVYRXSWSC (D-Ala at position 8; C-terminal amide; disulfide bridge Cys4-Cys12) [APY-DAla8.am] | 280 nM | 
APYCVYRGSWSC-NH2 (disulfide 4-12, C-terminally amidated APY) [APY.am] | 280 nM | 
YCVYR[βAla]SWSC-NH2 (disulfide 2-10 (inferred), numbers may be shifted) [Y-βAla8.am] | 1470 nM | 
APYCVYRXSWSC (βAla (3-aminopropanoic acid) at position 8; C-terminal amide; disulfide bridge Cys4-Cys12) [APY-βAla8.am] |  | ~300 nM
APYCVYRXSWSC (aminoisobutyric acid (Aib) at position 8; C-terminal amide; disulfide bridge Cys4-Cys12) [APY-Aib8.am] | 2600 nM | 
APYCVYK[βAla]SWSC-NH2 (disulfide 4-12 (inferred), also called APYCVYKβASWSC-am) [APY-Lys7-βAla8.am] | 68 nM | 
XPYCVYRGSWSC (D-Ala at position 1; C-terminal amide; disulfide bridge Cys4-Cys12) [DAla1-PY.am] | 1100 nM | 
XPYCVYRGSWSC (βAla at position 1; C-terminal amide; disulfide bridge Cys4-Cys12) [βAla1-PY.am] | 680 nM | 
KYCVYR[βAla]SWSC-NH2 (disulfide 3-11 (inferred), numbers may be shifted) [KY-βAla8.am] | 260 nM | 
Ac-KYCVYR[βAla]SWSC-NH2 (disulfide 3-11 (inferred), numbers may be shifted) [ac.KY-βAla8.am] | 1160 nM | 
